Experimental data taken from paper PMC5789848, “HTLV-1 Tax plugs and freezes UPF1 helicase leading to nonsense-mediated mRNA decay inhibition”.

T1: UPF1-HD (Homo sapiens, UniProt Q92900-2 295-914)
T1 sequence: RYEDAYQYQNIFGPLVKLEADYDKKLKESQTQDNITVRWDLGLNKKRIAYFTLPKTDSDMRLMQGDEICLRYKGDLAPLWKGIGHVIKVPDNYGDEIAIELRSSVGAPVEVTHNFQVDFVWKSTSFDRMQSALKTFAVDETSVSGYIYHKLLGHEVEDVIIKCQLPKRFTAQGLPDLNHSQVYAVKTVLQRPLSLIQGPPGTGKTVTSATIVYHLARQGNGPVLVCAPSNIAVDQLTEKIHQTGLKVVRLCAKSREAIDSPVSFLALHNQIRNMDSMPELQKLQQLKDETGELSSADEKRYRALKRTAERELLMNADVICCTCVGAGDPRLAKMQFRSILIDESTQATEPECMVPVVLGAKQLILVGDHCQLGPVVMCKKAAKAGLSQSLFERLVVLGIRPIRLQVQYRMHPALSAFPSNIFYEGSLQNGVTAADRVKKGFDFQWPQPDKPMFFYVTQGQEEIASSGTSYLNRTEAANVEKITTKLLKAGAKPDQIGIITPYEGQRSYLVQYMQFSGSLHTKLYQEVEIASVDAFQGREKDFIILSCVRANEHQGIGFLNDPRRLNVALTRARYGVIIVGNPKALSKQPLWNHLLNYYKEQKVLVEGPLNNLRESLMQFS


Tests used:
UPF1-HD [1] = target: T1, UPF1-HD; experiment: pull-down; 200 mM NaCl; BLI: 20 mM HEPES pH 7.5, 150 mM K acetate, 2 mM Mg acetate, 1 mM DTT, 6.3% glycerol, 0.1% NP-40; EMSA: 20 mM MES pH 6.0, 150 mM K acetate, 2 mM DTT, 0.2 ug/ul BSA, 6% glycerol, 30 C; pull-down: BLI-like buffer, 30 C then 4 C, 200 mM NaCl wash; details: protein: recombinant; tags: C-terminal His6 (CBP N-terminal and/or His6 per Methods); label: 3' biotin (BtnTg); single strand
UPF1-HD [2] = target: T1, UPF1-HD; experiment: EMSA; UPF1-HD 0-10 nM, RNA 1 nM; BLI: 20 mM HEPES pH 7.5, 150 mM K acetate, 2 mM Mg acetate, 1 mM DTT, 6.3% glycerol, 0.1% NP-40; EMSA: 20 mM MES pH 6.0, 150 mM K acetate, 2 mM DTT, 0.2 ug/ul BSA, 6% glycerol, 30 C; pull-down: BLI-like buffer, 30 C then 4 C, 200 mM NaCl wash; details: protein: recombinant; tags: C-terminal His6 (CBP N-terminal and/or His6 per Methods); label: 32P; single strand

Binder | binding result (UPF1-HD [1]) | binding result (UPF1-HD [2])
CGUCCAUCUGGUCAUCUAGUGAUAUCAUCG (ssRNA) [30-mer ssRNA 3'-biotin (pull-down)] | binds | 
CGUCCAUCUGGUCAUCUAGUGAUAUCAUCG (ssRNA) [30-mer ssRNA (EMSA)] |  | binds
